Measurements: the supplement of paper PMC12764529
± gives the half width of the 95% confidence interval.

How the values were obtained:
[1] = folding stability dG unfold (combined trypsin and chymotrypsin); higher = more stable
In short: (§1)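 Mini-proteins designed to be under 80 residues and free of cysteine were carried in a PA-tagged cDNA display construct and digested with trypsin and with chymotrypsin. Each protease was applied at 11 threefold-diluted concentrations, alongside a no-protease condition, before sequencing. K50 came from Bayesian fitting of the sequencing counts, and unfolding free energy was obtained by comparing it with a sequence-predicted unfolded-state K50 and a shared folded-state K50, for each protease separately or for both together. Designs were retained only if their AlphaFold2 dimer inter-PAE exceeded 15.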

[2] = folding stability dG unfold from chymotrypsin proteolysis; higher = more stable
In short: as §1

Row | Sequence | folding stability dG unfold [1] | folding stability dG unfold [2]
1 | SAGGSAGGSDKIRKALKELGYPYEIDNIDVNVTKNGNPEIEIKYSPGMPPQDQKRIKRAVIDLSAGGSAGGS [r12_352_TrROS] | -0.469 ± 0.15 kcal/mol | -0.14 ± 0.065 kcal/mol
2 | SAGGSAGGSDPTYVEVRTLAGPAGPTRVLIRPSSGEWLEAEFPVDRPVVFFVPADVEVEVLPDSAGGSAGGS [r12_517_TrMRF] | 0.0902 ± 0.054 kcal/mol | 0.498 ± 0.048 kcal/mol
3 | SAGGSAGGSEEFVILEIPFERKFVVKDPEGGEEREFEFRPVIPLVLPPELAEKLLKSPYLQKKSAGGSAGGS [r12_1015_TrMRF] | 0.416 ± 0.22 kcal/mol | 0.721 ± 0.26 kcal/mol
4 | SAGGSAGGSEKLEIVKAFVFENEVILIVKKEKEYYVLKLKFKDGKIESLEFIGPVPENDPSLGSAGGSAGGS [r12_154_TrMRF] | 5.27 ± 0.48 kcal/mol | 4.92 ± 0.16 kcal/mol
5 | SAGGSAGGSELITLTEKASLAVGELNLPSPEELAKKKYPDVKPKNITVSTKPGEGLVTVTVDGKSAGGSAGG [r6_81_JUSTAS] | -0.222 ± 0.19 kcal/mol | 0.207 ± 0.091 kcal/mol
6 | SAGGSAGGSENAALENPFANRPPIPPVRAVLYDPDGTPRVLEGRSLEEIRRYAEERGVVVDISSAGGSAGGS [r12_244_TrMRF] | -0.165 ± 0.075 kcal/mol | 0.397 ± 0.072 kcal/mol
7 | SAGGSAGGSEPRLILTTFPLPEPGEPVLRLLVIGEDRILAVRVVGEKPELRELDRLDDLLAEQSAGGSAGGS [r12_299_TrMRF] | < -1 kcal/mol | -0.433 ± 0.46 kcal/mol
8 | SAGGSAGGSFELPVPPNTPVDIEATVTRPDGTPATLVDAEPLGDGTFRVTVRYPDGSTETIEVSAGGSAGGS [r12_31_JUSTAS] | 0.464 ± 0.061 kcal/mol | 0.959 ± 0.038 kcal/mol
9 | SAGGSAGGSGAEITTLPEGRALLRLYDEGGVLVEEAEVEVELDAVLVFDRDNPRIGVFGPDELSAGGSAGGS [r12_1002_TrMRF] | -0.203 ± 0.14 kcal/mol | 0.0264 ± 0.13 kcal/mol
10 | SAGGSAGGSGGTIKLPLYPPEGKEYKGTIPKEKLEAAIAKGEPIKVTLKTKGKEVKEYTIPIKSAGGSAGGS [r12_991_JUSTAS] | -0.983 ± 0.48 kcal/mol | -0.582 ± 0.44 kcal/mol
11 | SAGGSAGGSGHHHMTTRTSTSTDPATGSTTVTTTRTTTDGGTVTTTTTLPPPAATTTTSTTTSSAGGSAGGS [r12_1029_JUSTAS] | -0.165 ± 0.11 kcal/mol | 0.349 ± 0.044 kcal/mol
12 | SAGGSAGGSGMPRKIASYEEKEEEDGKKTVKVRFPDDGKEITLSPEKAGKITPDSTVPLEELLSAGGSAGGS [r20_3_JUSTAS] | -0.168 ± 0.43 kcal/mol | 0.404 ± 0.049 kcal/mol
13 | SAGGSAGGSGMPTRNVPITTPDGKVVTVVERPPERAEIIFPDGSRATIVDPARGYEEITITPESAGGSAGGS [r12_491_JUSTAS] | 0.542 ± 0.059 kcal/mol | 0.945 ± 0.027 kcal/mol
14 | SAGGSAGGSGMSSTSTTTVEIEKDPSTGKVLKKTVTSPTTTLAPGGEWTTTVSTSTEEISPDLSAGGSAGGS [r12_629_JUSTAS] | -0.237 ± 0.4 kcal/mol | -0.101 ± 0.24 kcal/mol
15 | SAGGSAGGSIEINPNGNFKIRFRGGNRPQTHTIPIKPGETLDTIKDTIRKHMGPNFPEVEIERSAGGSAGGS [r12_300_TrROS] | -0.152 ± 0.13 kcal/mol | 0.0855 ± 0.11 kcal/mol
16 | SAGGSAGGSKPIPIKIKARNKDDGKKREEDIQIPPEALKNGKFDKEQIKKELRKLGPRVEIEISAGGSAGGS [r20_221_TrROS] | < -1 kcal/mol | -0.216 ± 0.18 kcal/mol
17 | SAGGSAGGSMEKRKLEIEIHLPASEATEEEMEELAEEYAKKNPEADEVTFKFTVEESDKESLESAGGSAGGS [r20_86_JUSTAS] | -0.605 ± 0.33 kcal/mol | -0.141 ± 0.25 kcal/mol
18 | SAGGSAGGSMKTVKPTELLASLSPEEEVILTTPTSATRLTVEEVKNVPEDTPVDVEVVPRNAASAGGSAGGS [r12_501_JUSTAS] | 0.244 ± 0.051 kcal/mol | 0.685 ± 0.015 kcal/mol
19 | SAGGSAGGSMNVKKVESEKDTGDGSTLTTNTVELPSNIIIVEPVLTPPSGNPQTTTKILPKGLSAGGSAGGS [r12_407_JUSTAS] | -0.5 ± 0.18 kcal/mol | -0.157 ± 0.12 kcal/mol
20 | SAGGSAGGSMSTVSTSTTYFPDKKVTTTTTVTPTPDGTTATTPSVTVTPLPPPNPPPAPFNRLSAGGSAGGS [r20_30_JUSTAS] | -0.351 ± 0.36 kcal/mol | -0.125 ± 0.28 kcal/mol
21 | SAGGSAGGSNWIEKAINEAMKQHPPGQERKVPIEIYNPNNNKPIGKIPIRIRMDKDGPMEIEISAGGSAGGS [r20_151_TrROS] | 0.529 ± 0.074 kcal/mol | 0.864 ± 0.049 kcal/mol
22 | SAGGSAGGSPKKRTVEIDEWDPEEGNVRARIRDDDEEREFPFRTPEDLEDLANEGGIDKITPHSAGGSAGGS [r12_421_TrROS] | 0.0607 ± 0.095 kcal/mol | 0.518 ± 0.027 kcal/mol

Row | Sequence | folding stability dG unfold [1] | folding stability dG unfold [2]
23 | SAGGSAGGSPNQDFKVKVKIKEFNPGNGHIRIDVEVEGDNPQVQDFAKGIAEGFGFPVEVEPISAGGSAGGS [r20_157_TrROS] | -0.0925 ± 0.14 kcal/mol | 0.34 ± 0.038 kcal/mol
24 | SAGGSAGGSQWIEIELPLPNGRNIQIEMWPNNGMVDVEWPDGKEVEFPVETADDALDRVLDALSAGGSAGGS [r12_866_TrROS] | 0.0352 ± 0.21 kcal/mol | 0.552 ± 0.12 kcal/mol
25 | SAGGSAGGSSMEVVTPIERPVDVTSPENGEVVKVRVKTLVGKDPNAWTTETTLTLPDGTPVALSAGGSAGGS [r12_283_JUSTAS] | 0.337 ± 0.2 kcal/mol | 0.988 ± 0.11 kcal/mol
26 | SAGGSAGGSVEELLAAATSEDPAKGLARAELPSGATATVDPAAGTVTITFTSPGTPSTTTVPAPSAGGSAGG [r6_793_JUSTAS] | < -1 kcal/mol | 0.33 ± 0.13 kcal/mol
27 | SAGGSAGGSVYLDPAVLAELEALRQAGLRVAEVREERVEVEGGPPRRVDVRAVVVDLPPEALAASAGGSAGG [r6_771_JUSTAS] | -0.11 ± 0.18 kcal/mol | 0.621 ± 0.056 kcal/mol
28 | SAGGSAGGTIRIPPAARNMMKELQKQGFVIEEIKIDEIERTENGPPWIEIDFEIKKLPPEALKDSAGGSAGG [r6_771_TrROS] | -0.939 ± 0.89 kcal/mol | -0.317 ± 0.33 kcal/mol
29 | SAGGSAGGVEELAKKLNIEVTGNEVTITLKKKKVTVKKLKAPPLKVKKYVDKKTKKIVKTEVELSAGGSAGG [r6_981_TrROS_Hall] | 0.431 ± 0.29 kcal/mol | 0.9 ± 0.28 kcal/mol
30 | SAGGSAIKIDPDYGTIEIYNPDNGKEIEIPIDGLPPGRKMDIEINNDKIEIKMPGGTRELPIDDIKSAGGSA [r15_864_TrROS] | 0.194 ± 0.26 kcal/mol | 0.655 ± 0.068 kcal/mol
31 | SAGGSAKTIVIPAEDLTPEEIKALAEENKDKIVIYNKKTKKVVTIEVKDGKITKVEEFPVSEEELKSAGGSA [r15_751_TrROS_Hall] | -0.256 ± 0.67 kcal/mol | 0.173 ± 0.3 kcal/mol
32 | SAGGSALKVKSVHQNPDDNYYMITVTIPGPDKAPREIMFPSPEDLEDKLDNLPPGIESVEIHPMKPSAGGSA [r15_589_TrROS] | < -1 kcal/mol | -0.203 ± 0.19 kcal/mol
33 | SAGGSAMKIEEEEVEVPLSDEELEALKKNPGKTVKVKVIKIEIEMPEEEKKRLAKELEEKFNIKIESAGGSA [r15_347_TrROS_Hall] | -0.146 ± 0.27 kcal/mol | 0.0343 ± 0.2 kcal/mol
34 | SAGGSAMSLEELKKKKVKVKVKEIEVPKGAKIPDGKTVKEGEKILVVDGKVYLPNGKLIAEVEVEESAGGSA [r15_12_TrROS_Hall] | -0.629 ± 0.47 kcal/mol | -0.621 ± 0.22 kcal/mol
35 | SAGGSAMSQEEIENKPIEEIAKAILENFPGNTKVEHEFTFKDGSKLRIVVELPEDGEPKIEAEPIGSAGGSA [r15_857_TrMRF] | -0.452 ± 0.56 kcal/mol | -0.0162 ± 0.39 kcal/mol
36 | SAGGSASMRTVTLTSTETLELKDPSGNLRVETTPVVVTVPVEVPDPNLPPPAVNSPVLTELLLRLLSAGGSA [r15_728_JUSTAS] | 0.0436 ± 0.084 kcal/mol | 0.413 ± 0.064 kcal/mol
37 | SAGGSASTTPIKFPNGFEVTKIEEGKGLVYIKYSPENPEILEKLGVEALETNENEVIVPREAIEKKSAGGSA [r15_984_JUSTAS] | -0.993 ± 0.36 kcal/mol | -0.634 ± 0.28 kcal/mol
38 | SAGGSATFEEALREVAEPTGAVPYVDPETGVAYVDFPDGKELEIEVPDGDRIEVRVLPDGRAVARGSAGGSA [r15_256_TrMRF] | < -1 kcal/mol | -0.494 ± 0.19 kcal/mol
39 | SAGGSEAAPGEKVTITTVTSSVLKTYETPTGTLETESSTSVTTTTVTVPAAAAAAAGVRYSPDPLLSAGGSA [r2_495_JUSTAS] | < -1 kcal/mol | -0.348 ± 0.14 kcal/mol
40 | SAGGSGSIVIKSIEPRLRLERLPNGELREVKEVEVDIEVEVDPETAPEEEIEAVREEAEKLAEELSSAGGSA [r2_40_JUSTAS] | 0.144 ± 0.21 kcal/mol | 0.713 ± 0.082 kcal/mol
41 | SAGGSMKLKPGDEIWVPENMPEDAIKDEIKEWADNFNIKGIDDIEPPKPGWHRIKVEWPNGRKLTISAGGSA [r2_168_TrROS] | -0.748 ± 0.3 kcal/mol | -0.147 ± 0.17 kcal/mol
42 | SAGGSSAEELAEALKKKLEELGLEIKELELKVKKVKVEEKPKPKVELKEEKVEVKEKKFYSEEEKKSAGGSA [r2_384_TrROS_Hall] | < -1 kcal/mol | -0.485 ± 0.69 kcal/mol
43 | SAGGSSLPPEYTVTEVEREFTTPEDVAEARAAAEAAAAAGAEVLEVTVERPEDGSYRVRFTLATPRSAGGSA [r2_350_JUSTAS] | 0.0151 ± 0.24 kcal/mol | 0.611 ± 0.22 kcal/mol
